According to patent US20210347832:

Legend:
C16-CathB-SIINFEKL = system: T1, C16-CathB-SIINFEKL
T1 sequence: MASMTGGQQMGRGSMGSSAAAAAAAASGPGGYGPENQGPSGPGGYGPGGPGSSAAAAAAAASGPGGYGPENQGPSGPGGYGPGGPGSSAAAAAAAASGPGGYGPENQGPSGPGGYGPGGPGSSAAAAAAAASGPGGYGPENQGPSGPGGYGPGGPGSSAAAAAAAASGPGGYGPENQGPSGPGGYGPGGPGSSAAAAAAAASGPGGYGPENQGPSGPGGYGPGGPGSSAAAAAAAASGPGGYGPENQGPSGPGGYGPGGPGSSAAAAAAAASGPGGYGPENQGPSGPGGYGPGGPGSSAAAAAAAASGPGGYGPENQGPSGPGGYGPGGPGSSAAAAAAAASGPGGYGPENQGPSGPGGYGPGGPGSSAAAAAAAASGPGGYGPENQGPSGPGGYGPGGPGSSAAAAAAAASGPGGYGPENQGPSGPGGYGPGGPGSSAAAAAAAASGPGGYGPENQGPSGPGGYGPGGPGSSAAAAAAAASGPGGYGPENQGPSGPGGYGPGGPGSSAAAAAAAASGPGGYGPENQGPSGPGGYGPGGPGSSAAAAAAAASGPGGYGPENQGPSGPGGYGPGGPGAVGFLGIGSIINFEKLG

C16-CathS-SIINFEKL = system: T2, C16-CathS-SIINFEKL
T2 sequence: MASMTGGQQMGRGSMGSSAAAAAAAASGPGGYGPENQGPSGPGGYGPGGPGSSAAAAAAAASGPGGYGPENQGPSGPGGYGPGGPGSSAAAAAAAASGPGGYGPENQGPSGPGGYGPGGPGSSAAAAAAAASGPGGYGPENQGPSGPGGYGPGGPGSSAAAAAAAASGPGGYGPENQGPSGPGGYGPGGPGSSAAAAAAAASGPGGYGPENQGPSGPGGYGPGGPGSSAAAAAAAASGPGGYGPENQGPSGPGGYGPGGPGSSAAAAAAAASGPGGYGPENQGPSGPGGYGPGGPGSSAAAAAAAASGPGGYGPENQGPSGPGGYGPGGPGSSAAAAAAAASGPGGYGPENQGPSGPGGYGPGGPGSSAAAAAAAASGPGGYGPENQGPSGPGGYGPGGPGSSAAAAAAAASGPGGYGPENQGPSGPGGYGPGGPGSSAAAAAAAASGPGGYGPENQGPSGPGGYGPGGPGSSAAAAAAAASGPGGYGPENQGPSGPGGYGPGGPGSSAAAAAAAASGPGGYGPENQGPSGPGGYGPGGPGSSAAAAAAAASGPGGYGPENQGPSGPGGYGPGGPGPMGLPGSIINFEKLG

| Substance | release of cleaved SIINFEKL peptide from particles (RP-HPLC, 96 h) (C16-CathB-SIINFEKL) | release of cleaved SIINFEKL peptide from particles (RP-HPLC, 96 h) (C16-CathS-SIINFEKL) | release of cleaved SIINFEKL peptide from particles (RP-HPLC, 1-96 h) (C16-CathB-SIINFEKL) | release of cleaved SIINFEKL peptide from particles (RP-HPLC, 1-96 h) (C16-CathS-SIINFEKL) |
| --- | --- | --- | --- | --- |
| cathepsin B enzyme | Cathepsin S enzyme shows the better cleavage of SIINFEKL (SEQ ID NO: 11) peptides from both C16 hybrid protein particles than cathepsin B | Cathepsin S enzyme shows the better cleavage of SIINFEKL (SEQ ID NO: 11) peptides from both C16 hybrid protein particles than cathepsin B |  |  |
| cathepsin S enzyme |  |  | Cathepsin S also cleaves SIINFEKL (SEQ ID NO: 11) peptides from particles designed for cathepsin B release, but slower and in a lesser extent | Cathepsin S enzyme shows the better cleavage of SIINFEKL (SEQ ID NO: 11) peptides from both hybrid polypeptide particles |
